The values that follow come from US20090305962A1 (Amgen, published 2009).

The assay concerns the target T1, human IL-6 (human, UniProt P05231 30-212).
T1 construct: the protein used was bought recombinant human IL-6 (R&D Systems), in part biotinylated; also called rhIL-6; hIL-6
Kind of assay: panning and screening on IL-6.

B1: SEQ ID NO 645 (designed binder)
chain: CGANEFQCGSGYCLPVGWVCDGENDCEDNSDEKGCPPHTCLPNQFQCRNGRCIPLPWLCDGDNDCEDDSDATNCTPRT
Take B1: the binding result was “binds”.

B2: SEQ ID NO 700 (designed binder)
chain: CRSNQFQCGSGYCIPVKWLCDGENDCEDSSDEESCPARTCPPSEFRCKGSGKCVPQHWLCDGVNDCEDDSDEKSCPPPT
As for B2, the binding result is on record as “binds”.

B3: SEQ ID NO 672 (designed binder)
chain: CQPGQFQCHDYGRCVSQNWLCDGDPDCLDSSDEANCQPPTCVPSQFQCGSGYCISQRWVCDGENDCEDSSDEANCAGSVPT
In the case of B3, the binding result is “binds”.
For the molecule CQANEFTCSSGNCLSPALLCDGVDDCGDNSDETNCASPAPT (designed binder) [SEQ ID NO 511], the binding result is “binds”.

B4: SEQ ID NO 677 (designed binder)
chain: CRADQCQCNSGHCLSRNLRCDGEDDCADNSDEKSCSQDPEFHKVCLPDQFQCGSGYCLPQRWVCDGVDDCEDSSDEKGCTPHT
In the case of B4, the binding result is listed as “binds”.

B5: SEQ ID NO 671 (designed binder)
chain: CQSSEFTCSSGRCLSAGWLCDGVNDCRDDSDEESCTAPVPTCVPSQFQCGSGYCISQRWVCDGENDCEDSSDEANCAGSVPT
As to B5, the binding result is given as “binds”.

B6: SEQ ID NO 712 (designed binder)
chain: CRSSQFRCSSGQCVSLGWVCDGVNDCPDSSDETGCPKRTCLPSQFQCGSGYCISQRWVCDGENDCEDSSDEANCAGSVPT
Consider B6, for which the binding result is “binds”.

B7: SEQ ID NO 669 (designed binder)
chain: CEASQFPCRNSERCVPPHLLCDGVNDCADGSDEIGCPPHTCVPSQFQCGSGYCISQRWVCDGENDCEDSSDEANCAGSVPT
Regarding B7, the binding result is recorded as “binds”.

B8: SEQ ID NO 665 (designed binder)
chain: CRASQFQCGSGYCIPRPWLCDGVNDCEDGSDEADCQTRTCVPSQFQCGSGYCISQRWVCDGENDCEDSSDEANCAGSVPT
For the molecule B8, the binding result is listed as “binds”.

B9: SEQ ID NO 670 (designed binder)
chain: CPSNQFQCRNNGTCIPLPWLCDGVDDCGDDSDETSCTEPTCVPSQFQCGSGYCISQRWVCDGENDCEDSSDEANCAGSVPT
In the case of B9, the binding result is “binds”.

B10: SEQ ID NO 635 (designed binder)
chain: CAPSQFTCGNGNCVPRPWLCDGDNDCEDDSDETSCPPHTCLPDQFQCGSGYCLPQAWVCDGENDCEDGSDETNCPART
In the case of B10, the binding result is “binds”.

B11: SEQ ID NO 675 (designed binder)
chain: CRSSEFRCDSGHCLPLPWVCDGDDDCEDGSDEAQDCEPRTCVPSQFQCGSGYCISQRWVCDGENDCEDSSDEANCAGSVPT
Consider B11, for which the binding result is “binds”.

B12: SEQ ID NO 714 (designed binder)
chain: CPPSQFTCSNGNCLSPTLLCDGVNDCVDDSDETSCAASVHTCLPSQFQCGSGYCISQRWVCDGENDCEDSSDEANCAGSVPT
For B12, the binding result is listed as “binds”.

B13: SEQ ID NO 680 (designed binder)
chain: CPADEFPCKNGKCLPLPWVCDGDNDCADNSDETDCTATAPTCRSNQFQCGSGYCISQRWVCDGENDCEDSSDEANCAGSVPT
On to B13, for which the binding result is reported as “binds”.

B14: SEQ ID NO 681 (designed binder)
chain: CGSDEFLCNNGKCIPPTWGCDGVNDCQDNSDEAPALCPPPTCRSNQFQCGSGYCIPQRWVCDGVDDCEDSSDEKGCTPHT
As to B14, the binding result is listed as “binds”.

B15: SEQ ID NO 689 (designed binder)
chain: CRASQFQCGSGYCIPRPWLCDGVNDCEDSSDEANCAGSVPTCQPSQFRCRSGHCISGALGCDGEPDCGDGSDETGCRASAHT
As to B15, the binding result is “binds”.
